Data: patent publication US20100221262A1 (Genentech, published 2010)

Tests used:
[1] = target: T1, murine Netrin-1-Fc (Laminin V and VI homology domains, amino acid M1 to amino acid P455, fused to the Fc … (murine; human, UniProt O09118 25-455); test: SPR (ProteOn), Unc5B-Fc immobilised, mNetrin-1 injected at 250 nM
Protocol: (§1) Binding experiments were performed by surface plasmon resonance SPR measurements on a ProteOn XPR36 instrument (Bio-Rad Laboratories, Inc.) at 25° C. In accordance with common SPR terminology, proteins that are immobilized onto the sensor chip are referred to as ‘ligands’, whereas binding partners injected in solution are referred to as ‘analytes’.
(§2) For binding competition experiments human Unc5B-Fc and Unc5B-His proteins were used as ligands and immobilized at high surface densities (3000-4000 RU) on an activated ProteOn GLC sensor chip (Bio-Rad Laboratories, Inc.). Unc5B antibodies and Netrin-Fc were used as analytes. To perform binding assays, analytes and 1:1 molar mixtures of analytes were injected in PBS, 0.005% v/v Tween-20, pH 7.4, at a flow rate of 100 μl/min and sensorgrams for association and dissociation phases were recorded. Blank surfaces are used for background corrections. Analytes are injected for 240 s and allowed to dissociate for 600 s. […]
(§3) For the SPRs binding experiments Unc5B-His and -Fc proteins were immobilized onto a ProteOn GLC sensor chips and mNetrin-1, Unc5B antibodies or equimolar mixtures of Unc5B antibodies and Netrin-1 were injected as indicated at a concentration of 250 nM. Binding sensorgrams were recorded for association and dissociation reactions. […]

[2] = target: T1, murine Netrin-1-Fc (Laminin V and VI …); test: SPR (ProteOn), Unc5B-His immobilised, mNetrin-1 injected at 250 nM
Protocol: as §1, §2, §3

| binding result [1] | binding result [2] | Binder |
| --- | --- | --- |
| binds | – | human Unc5B-Fc (two N-terminal Ig-like domains of Unc5B, amino acid M1 to amino acid V243, fused to the Fc portion of human IgG1) (Fc fusion, range 1-243; not shown: Fc portion of human IgG1) not shown |
| – | binds | human Unc5B-His (two N-terminal Ig-like domains of Unc5B, amino acid M1 to amino acid V243, C-terminal Histidine tag) (receptor, range 1-243; The cloned range M1-V243 includes the native signal peptide; also called human Unc5B-His tagged protein; not shown: C-terminal Histidine tag) not shown |
